Measured values reported in paper PMC4751086, “Structural Study of the HD-PTP Bro1 Domain in a Complex with the Core Region of STAM2, a Subunit of ESCRT-0” (PLoS ONE, 2016).

T1: HD-PTP(1–361) (human, UniProt Q9H3S7 1-361)
T1 construct: also called HD-PTP Bro1 domain; PTPN23; source: E. coli BL21(DE3) RIL, purified (Ni-NTA, TEV protease, gel filtration); not shown: (His)6, N-terminal, cleaved
T1 sequence (looked up): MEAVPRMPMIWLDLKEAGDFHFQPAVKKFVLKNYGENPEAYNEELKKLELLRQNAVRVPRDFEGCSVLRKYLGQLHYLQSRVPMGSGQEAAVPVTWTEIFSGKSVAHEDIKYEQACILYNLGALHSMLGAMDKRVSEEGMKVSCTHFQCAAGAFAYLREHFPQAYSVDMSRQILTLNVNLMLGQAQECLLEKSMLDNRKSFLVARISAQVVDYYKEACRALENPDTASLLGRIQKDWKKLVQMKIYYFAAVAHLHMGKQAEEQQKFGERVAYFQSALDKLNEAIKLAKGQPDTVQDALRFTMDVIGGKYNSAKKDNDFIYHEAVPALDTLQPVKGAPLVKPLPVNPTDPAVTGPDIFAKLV

T2: HD-PTP(1–361;T145K) (human, UniProt Q9H3S7 1-361, T145K)
T2 construct: source: E. coli BL21(DE3) RIL, purified (Ni-NTA, gel filtration)
T2 sequence (looked up): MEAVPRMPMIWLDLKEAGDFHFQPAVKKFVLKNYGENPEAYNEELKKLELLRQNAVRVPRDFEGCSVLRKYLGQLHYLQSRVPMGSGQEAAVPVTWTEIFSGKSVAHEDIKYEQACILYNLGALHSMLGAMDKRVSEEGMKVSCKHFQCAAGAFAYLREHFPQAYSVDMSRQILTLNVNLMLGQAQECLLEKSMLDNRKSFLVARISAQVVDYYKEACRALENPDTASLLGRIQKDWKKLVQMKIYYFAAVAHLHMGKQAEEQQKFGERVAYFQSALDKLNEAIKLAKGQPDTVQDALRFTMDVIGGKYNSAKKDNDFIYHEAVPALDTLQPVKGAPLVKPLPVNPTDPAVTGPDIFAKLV

T3: HD-PTP(1–361;T145R) (human, UniProt Q9H3S7 1-361, T145R)
T3 construct: source: E. coli BL21(DE3) RIL, purified (Ni-NTA, gel filtration)
T3 sequence (looked up): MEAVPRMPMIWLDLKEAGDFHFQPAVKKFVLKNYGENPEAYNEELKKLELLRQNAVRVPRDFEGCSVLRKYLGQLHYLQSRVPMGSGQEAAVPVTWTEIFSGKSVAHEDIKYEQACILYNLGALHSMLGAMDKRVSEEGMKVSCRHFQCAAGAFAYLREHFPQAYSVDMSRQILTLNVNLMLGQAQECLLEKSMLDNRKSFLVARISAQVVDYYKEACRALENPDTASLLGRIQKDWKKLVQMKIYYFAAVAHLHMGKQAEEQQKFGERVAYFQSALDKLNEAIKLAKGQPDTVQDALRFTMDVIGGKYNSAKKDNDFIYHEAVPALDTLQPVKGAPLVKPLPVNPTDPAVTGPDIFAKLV

T4: HD-PTP(1–361) with T145A substitution (human, UniProt Q9H3S7 1-361, T145A)
T4 construct: source: E. coli BL21(DE3) RIL, purified (Ni-NTA, gel filtration)
T4 sequence (looked up): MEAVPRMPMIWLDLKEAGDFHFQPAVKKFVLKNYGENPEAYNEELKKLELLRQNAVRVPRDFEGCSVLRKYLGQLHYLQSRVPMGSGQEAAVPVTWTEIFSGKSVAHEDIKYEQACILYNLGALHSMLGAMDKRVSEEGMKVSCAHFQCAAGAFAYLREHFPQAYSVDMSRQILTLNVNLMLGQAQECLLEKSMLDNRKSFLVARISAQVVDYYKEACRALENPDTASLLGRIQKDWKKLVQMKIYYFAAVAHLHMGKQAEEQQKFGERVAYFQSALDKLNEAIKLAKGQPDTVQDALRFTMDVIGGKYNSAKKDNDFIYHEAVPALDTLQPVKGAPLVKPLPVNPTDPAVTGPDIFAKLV


Experiments:
Conditions in all cases: both partners purified
[1] = molecular target: T1, HD-PTP(1–361); assay: ITC; 0.5 mM peptide titrated into 50 μM protein; iTC200; 2°C as printed; 20 mM Tris-HCl (pH 7.5), 100 mM NaCl
[2] = molecular target: T2, HD-PTP(1–361;T145K); assay: as above
[3] = molecular target: T3, HD-PTP(1–361;T145R); assay: as above
[4] = molecular target: T4, HD-PTP(1–361) with T145A substitution; assay: as above
[5] = molecular target: T1, HD-PTP(1–361); assay: SEC; Superose 6 10/300 GL gel filtration column; mixture of HD-PTP(1–361) and STAM2 fragment; peak fractions analysed by SDS-PAGE and Coomassie staining

Kd [1] | Kd [2] | Kd [3] | Kd [4] | binding result [5] | Binder
< 8 µM | < 8 µM | < 8 µM | < 8 µM |  | KEEEDDDMKELENWAGSM (peptide, UniProt Q9H444 207-224, looked up, CHMP4B, residues 207–224 (18-mer; the polypeptide terminates with Met224); also called CHMP4B peptide of 18-mer (residues 207–224); charged multivesicular body protein 4B; source: synthetic peptide, bought: Peptron (Korea)) [CHMP4B(207–224)]
 |  |  |  | binds | STAM2(311–370) (domain or fragment, source: E. coli BL21(DE3) RIL, purified (Ni-NTA, gel filtration)) not shown
 |  |  |  | binds | STAM2(260–370) (domain or fragment, STAM2, human, core region, residues 260–370; also called STAM2 core region containing residues 260–370; signal-transducing adaptor molecule 2; source: E. coli BL21(DE3) RIL, purified (Ni-NTA, gel filtration)) not shown
